The values that follow come from patent publication US20230242651A1 (published 2023).

Assay [1] deals with T1, human interleukin-23 receptor (IL23R) (human, UniProt Q5VWK5 24-355, limits assumed).
T1 construct: also called human IL23R
T1 sequence (looked up): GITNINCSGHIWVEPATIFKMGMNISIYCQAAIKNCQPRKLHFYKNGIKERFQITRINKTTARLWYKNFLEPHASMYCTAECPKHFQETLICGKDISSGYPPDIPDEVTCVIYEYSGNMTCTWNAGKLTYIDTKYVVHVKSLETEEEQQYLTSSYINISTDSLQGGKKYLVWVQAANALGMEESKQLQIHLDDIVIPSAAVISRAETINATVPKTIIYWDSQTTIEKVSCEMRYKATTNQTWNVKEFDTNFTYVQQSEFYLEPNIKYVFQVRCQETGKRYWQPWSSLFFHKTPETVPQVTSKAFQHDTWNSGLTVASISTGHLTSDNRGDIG
As to the kind of experiment: SPR, scFv. Put shortly: (§1)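 Binding to human IL23R was assessed by surface plasmon resonance, with values given as rate constants and dissociation constant or as a λ-capped over uncapped dissociation-constant ratio. The binders were humanized rabbit variable domains in single-chain variable fragment format on consensus germline framework pairs, with or without a λ-cap. Each was produced in E. coli as inclusion bodies and refolded after solubilization.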

The target in assay [2] is T1, human interleukin-23 receptor (IL23R). As to the kind of experiment: SPR, scFv (summary table). The gist of the method:
as §1
For orientation: In SPR one partner is held on a chip, and binding of the other changes the refractive index at the surface.

For assay [3] the target is unchanged. As to the kind of experiment: SPR; KD of the capped scFv over KD of its uncapped counterpart. Put shortly:
as §1

Assay [4] has as its target T2, human TNF (human, UniProt P01375 77-233). As to the kind of experiment: SPR, scFv.
Assay [5] addresses T2, human TNF. As to the kind of experiment: SPR, scFv; footnote: interference with SPR measurement.

T2 sequence (P01375 77-233 limits assumed): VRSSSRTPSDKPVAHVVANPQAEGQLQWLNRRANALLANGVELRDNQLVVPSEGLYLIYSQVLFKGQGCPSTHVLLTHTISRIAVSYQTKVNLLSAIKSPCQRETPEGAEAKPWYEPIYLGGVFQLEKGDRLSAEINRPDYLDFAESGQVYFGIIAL

B1: Vκ2/VH5 consensus λ-capped, human IL23R specific scFv (scFv)
scFv: DIVMTQSPLSLPVTPGEPASISCQASENIYSFLAWYLQKPGQSPQLLIYSASKLAAGVPDRFSGSGSGTDFTLKISRVEAEDVGVYYCQQTNRYSNPDIYNVFGGGTKLTVLGGGGGSGGGGSGGGGSGGGGSEVQLVQSGAEVKKPGESLKISCKGSGIDFNSNYYMCWVRQMPGKGLEWMGCIYVGSHVNTYYANWAKGQVTISADKSISTAYLQWSSLKASDTAMYYCATSGSSVLYFKFWGQGTLVTVSS
notes: scFv VL-linker-VH, made in E. coli; also called Vκ2VH5 capped
Usually Kd stands for the concentration at which binding is half-saturated. One may read the koff as the rate constant with which the complex falls apart. Higher therefore signals a short-lived complex. By kon is commonly meant the second-order rate constant of association. Lower therefore signals slower complex formation. In assay [1], B1 displayed a dissociation constant Kd of 0.476 nM, a koff of 0.000715 s⁻¹ and a kon of 1.5e+06 M⁻¹ s⁻¹. In assay [2], this molecule showed a Kd of 0.476 nM. For the same molecule, in assay [3], the “Ratio (capped/uncapped) of KD” value was 1.6.

B2: VK1/VH3 consensus λ-capped, TNF-specific scFv (scFv)
scFv: DIQMTQSPSSLSASVGDRVTITCQASQSISDWLAWYQQKPGKAPKLLIYGASRLASGVPSRFSGSGSGTDFTLTISSLQPEDFATYYCQQGWSDSYVDNLFGGGTKLTVLGGGGGSGGGGSGGGGSGGGGSEVQLVESGGGLVQPGGSLRLSCAASGFSLSSGAMSWVRQAPGKGLEWVSVIISSGATYYASWAKGRFTISRDNSKNTLYLQMNSLRAEDTAVYYCARGGPDDSNSMGTFDPWGQGTLVTVSS
notes: also called capped Vκ1/VH3 consensus molecule (TNF CDRs)
In assay [4], B2 showed a Kd of 0.225 nM, an off-rate constant (koff) of 9.41e-05 s⁻¹ and an on-rate constant (kon) of 419000 M⁻¹ s⁻¹.

B3: VK1/VH3 consensus uncapped, TNF-specific scFv (scFv)
scFv: DIQMTQSPSSLSASVGDRVTITCQASQSISDWLAWYQQKPGKAPKLLIYGASRLASGVPSRFSGSGSGTDFTLTISSLQPEDFATYYCQQGWSDSYVDNLFGQGTKVEIKRGGGGSGGGGSGGGGSGGGGSEVQLVESGGGLVQPGGSLRLSCAASGFSLSSGAMSWVRQAPGKGLEWVSVIISSGATYYASWAKGRFTISRDNSKNTLYLQMNSLRAEDTAVYYCARGGPDDSNSMGTFDPWGQGTLVTVSS
notes: also called control molecule (Vκ1/VH3 consensus)
With B3, in assay [4], the Kd stood at 0.265 nM, the koff was determined as 0.000105 s⁻¹ and the on-rate constant (kon) was found to be 395000 M⁻¹ s⁻¹.

B4: VK3/VH3 consensus λ-capped, TNF-specific scFv (scFv)
scFv: DIVLTQSPATLSLSPGERATLSCQASQSISDWLAWYQQKPGQAPRLLIYGASRLASGVPARFSGSGSGTDFTLTISSLEPEDFAVYYCQQGWSDSYVDNLFGGGTKLTVLGGGGGSGGGGSGGGGSGGGGSEVQLVESGGGLVQPGGSLRLSCAASGFSLSSGAMSWVRQAPGKGLEWVSVIISSGATYYASWAKGRFTISRDNSKNTLYLQMNSLRAEDTAVYYCARGGPDDSNSMGTFDPWGQGTLVTVSS
In assay [5], B4 had a Kd of 1.82 nM, an off-rate constant (koff) of 0.000529 s⁻¹ and a kon of 290000 M⁻¹ s⁻¹.

B5: Vκ2/VH3 consensus λ-capped, human IL23R specific scFv (scFv)
scFv: DIVMTQSPLSLPVTPGEPASISCQASENIYSFLAWYLQKPGQSPQLLIYSASKLAAGVPDRFSGSGSGTDFTLKISRVEAEDVGVYYCQQTNRYSNPDIYNVFGGGTKLTVLGGGGGSGGGGSGGGGSGGGGSEVQLVESGGGLVQPGGSLRLSCAASGIDFNSNYYMCWVRQAPGKGLEWVSCIYVGSHVNTYYANWAKGRFTISRDNSKNTLYLQMNSLRAEDTAVYYCATSGSSVLYFKFWGQGTLVTVSS
notes: scFv VL-linker-VH, made in E. coli; also called Vκ2VH3 capped
B5: in assay [1], the Kd is 0.0397 nM, the koff was found to be 7.77e-05 s⁻¹ and the kon was determined as 1.95e+06 M⁻¹ s⁻¹. The same molecule displayed an equilibrium dissociation constant (Kd) in assay [2] of 0.0397 nM. In assay [3], the “Ratio (capped/uncapped) of KD” value came to 1.7.

B6: Vκ3/VH2 consensus λ-capped, human IL23R specific scFv (scFv)
scFv: DIVLTQSPATLSLSPGERATLSCQASENIYSFLAWYQQKPGQAPRLLIYSASKLAAGVPARFSGSGSGTDFTLTISSLEPEDFAVYYCQQTNRYSNPDIYNVFGGGTKLTVLGGGGGSGGGGSGGGGSGGGGSQVQLKESGPALVKPTQTLTLTCTFSGIDFNSNYYMCWIRQPPGKALEWLACIYVGSHVNTYYANWAKGRLTISKDTSKNQVVLTMTNMDPVDTATYYCATSGSSVLYFKFWGQGTLVTVSS
notes: scFv VL-linker-VH, made in E. coli; also called Vκ3VH2 capped
On to B6, for which, in assay [1], binding was put at a Kd of 0.0916 nM, the koff worked out at 0.000152 s⁻¹ and the association rate constant (kon) worked out at 1.66e+06 M⁻¹ s⁻¹. The Kd in assay [2] worked out at 0.0916 nM. Further, the “Ratio (capped/uncapped) of KD” value in assay [3] is 0.2.

B7: Vκ3/VH1A consensus λ-capped, human IL23R specific scFv (scFv)
scFv: DIVLTQSPATLSLSPGERATLSCQASENIYSFLAWYQQKPGQAPRLLIYSASKLAAGVPARFSGSGSGTDFTLTISSLEPEDFAVYYCQQTNRYSNPDIYNVFGGGTKLTVLGGGGGSGGGGSGGGGSGGGGSQVQLVQSGAEVKKPGSSVKVSCKASGIDFNSNYYMCWVRQAPGQGLEWMGCIYVGSHVNTYYANWAKGRVTITADESTSTAYMELSSLRSEDTAVYYCATSGSSVLYFKFWGQGTLVTVSS
notes: scFv VL-linker-VH, made in E. coli; also called Vκ3VH1A capped
As for B7, in assay [1], the Kd came to 0.585 nM, the koff is 0.00117 s⁻¹ and the on-rate constant (kon) was found to be 2e+06 M⁻¹ s⁻¹. This molecule displayed a dissociation constant (Kd) in assay [2] of 0.585 nM. The “Ratio (capped/uncapped) of KD” value in assay [3] amounted to 2.

B8: Vκ3/VH1B consensus λ-capped, human IL23R specific scFv (scFv)
scFv: DIVLTQSPATLSLSPGERATLSCQASENIYSFLAWYQQKPGQAPRLLIYSASKLAAGVPARFSGSGSGTDFTLTISSLEPEDFAVYYCQQTNRYSNPDIYNVFGGGTKLTVLGGGGGSGGGGSGGGGSGGGGSQVQLVQSGAEVKKPGASVKVSCKASGIDFNSNYYMCWVRQAPGQGLEWMGCIYVGSHVNTYYANWAKGRVTMTRDTSISTAYMELSSLRSEDTAVYYCATSGSSVLYFKFWGQGTLVTVSS
notes: scFv VL-linker-VH, made in E. coli; also called Vκ3VH1B capped
For B8, in assay [1], the Kd is 0.181 nM, the off-rate (koff) was found to be 0.000506 s⁻¹ and the association rate constant (kon) worked out at 2.8e+06 M⁻¹ s⁻¹. Besides, the Kd in assay [2] was determined as 0.181 nM. The “Ratio (capped/uncapped) of KD” value in assay [3] was 0.4.

B9: Vκ2/VH1A consensus λ-capped, human IL23R specific scFv (scFv)
scFv: DIVMTQSPLSLPVTPGEPASISCQASENIYSFLAWYLQKPGQSPQLLIYSASKLAAGVPDRFSGSGSGTDFTLKISRVEAEDVGVYYCQQTNRYSNPDIYNVFGGGTKLTVLGGGGGSGGGGSGGGGSGGGGSQVQLVQSGAEVKKPGSSVKVSCKASGIDFNSNYYMCWVRQAPGQGLEWMGCIYVGSHVNTYYANWAKGRVTITADESTSTAYMELSSLRSEDTAVYYCATSGSSVLYFKFWGQGTLVTVSS
notes: scFv VL-linker-VH, made in E. coli; also called Vκ2VH1A capped
In assay [1], B9 gave a Kd of 0.0772 nM, an off-rate (koff) of 0.000184 s⁻¹ and an on-rate (kon) of 2.39e+06 M⁻¹ s⁻¹. Further, the Kd in assay [2] came out at 0.0772 nM. The “Ratio (capped/uncapped) of KD” value in assay [3] was found to be 0.3.

B10: Vκ1/VH6 consensus λ-capped, human IL23R specific scFv (scFv)
scFv: DIQMTQSPSSLSASVGDRVTITCQASENIYSFLAWYQQKPGKAPKLLIYSASKLAAGVPSRFSGSGSGTDFTLTISSLQPEDFATYYCQQTNRYSNPDIYNVFGGGTKLTVLGGGGGSGGGGSGGGGSGGGGSQVQLQQSGPGLVKPSQTLSLTCAISGIDFNSNYYMCWIRQSPGRGLEWLGCIYVGSHVNTYYANWAKGRITINPDTSKNQFSLQLNSVTPEDTAVYYCATSGSSVLYFKFWGQGTLVTVSS
notes: scFv VL-linker-VH, made in E. coli; also called Vκ1VH6 capped
In assay [1], B10 returned a Kd of 0.245 nM, a dissociation rate constant (koff) of 0.000349 s⁻¹ and a kon of 1.42e+06 M⁻¹ s⁻¹. The same molecule gave an equilibrium dissociation constant (Kd) in assay [2] of 0.245 nM. Also, the “Ratio (capped/uncapped) of KD” value in assay [3] came to 1.

B11: Vκ2/VH6 consensus λ-capped, human IL23R specific scFv (scFv)
scFv: DIVMTQSPLSLPVTPGEPASISCQASENIYSFLAWYLQKPGQSPQLLIYSASKLAAGVPDRFSGSGSGTDFTLKISRVEAEDVGVYYCQQTNRYSNPDIYNVFGGGTKLTVLGGGGGSGGGGSGGGGSGGGGSQVQLQQSGPGLVKPSQTLSLTCAISGIDFNSNYYMCWIRQSPGRGLEWLGCIYVGSHVNTYYANWAKGRITINPDTSKNQFSLQLNSVTPEDTAVYYCATSGSSVLYFKFWGQGTLVTVSS
notes: scFv VL-linker-VH, made in E. coli; also called Vκ2VH6 capped
In assay [1], B11 came in with a dissociation constant Kd of 0.887 nM, a koff of 0.000475 s⁻¹ and an on-rate constant (kon) of 535000 M⁻¹ s⁻¹. The dissociation constant Kd in assay [2] was determined as 0.887 nM. The “Ratio (capped/uncapped) of KD” value in assay [3] stood at 0.3.

B12: Vκ2/VH4 consensus λ-capped, human IL23R specific scFv (scFv)
scFv: DIVMTQSPLSLPVTPGEPASISCQASENIYSFLAWYLQKPGQSPQLLIYSASKLAAGVPDRFSGSGSGTDFTLKISRVEAEDVGVYYCQQTNRYSNPDIYNVFGGGTKLTVLGGGGGSGGGGSGGGGSGGGGSQVQLQESGPGLVKPSETLSLTCTVSGIDFNSNYYMCWIRQPPGKGLEWIGCIYVGSHVNTYYANWAKGRVTISVDTSKNQFSLKLSSVTAADTAVYYCATSGSSVLYFKFWGQGTLVTVSS
notes: scFv VL-linker-VH, made in E. coli; also called Vκ2VH4 capped
B12: in assay [1], binding was characterised by a dissociation constant (Kd) of 0.0481 nM, the off-rate (koff) was 0.000112 s⁻¹ and the on-rate (kon) was determined as 2.33e+06 M⁻¹ s⁻¹. Besides, the affinity in assay [2], expressed as Kd, was 0.0481 nM. Besides, in assay [3], the “Ratio (capped/uncapped) of KD” value came to 0.4.
